Target: T1, E. coli type II fatty acid synthase ACP (AcpP), P0A6A8
T1 chain: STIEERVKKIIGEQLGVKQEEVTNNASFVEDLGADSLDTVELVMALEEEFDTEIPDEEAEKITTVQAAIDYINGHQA

B1: 4'-phosphopantetheinyl transferase Sfp from Bacillus subtilis (protein)
chain: MKIYGIYMDRPLSQEENERFMSFISPEKREKCRRFYHKEDAHRTLLGDVLVRSVISRQYQLDKSDIRFSTQEYGKPCIPDLPDAHFNISHSGRWVICAFDSQPIGIDIEKTKPISLEIAKRFFSKTEYSDLLAKDKDEQTDYFYHLWSMKESFIKQEGKGLSLPLDSFSVRLHQDGQVSIELPDSHSPCYIKTYEVDPGYKMAVCAAHPDFPEDITMVSYEELL
- ACP phosphopantetheinylation with fluorescently labeled CoA (TAMRA-CoA), SDS-PAGE, UV fluorescence: protein extracts from all the recombinant cyanobacteria strains constructed here allowed the conversion of E. coli ACP to its fluorescently labeled derivative

Source: patent US20200332324
